The target in assay [1] is T1, CD79b on Ramos cells and on endogenous B cells of human PBMCs (human, UniProt P40259 29-229).
T1 sequence (looked up): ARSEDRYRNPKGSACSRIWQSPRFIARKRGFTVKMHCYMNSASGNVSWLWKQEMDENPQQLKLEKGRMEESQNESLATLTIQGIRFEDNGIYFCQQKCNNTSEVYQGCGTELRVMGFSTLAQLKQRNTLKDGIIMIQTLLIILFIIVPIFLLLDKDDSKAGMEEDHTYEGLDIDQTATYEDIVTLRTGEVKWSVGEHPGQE
Kind of assay: cell-based or functional assay.

Assay [2] deals with T1, CD79b on Ramos cells and on endogenous …. As to the kind of experiment: cell-based or functional assay. The source holds these as a separate data set.
Assay [3] has the same target. Kind of assay: cell-based or functional assay. This is another data set of the same source.
Assay [4] has the same target. As to the kind of experiment: cell-based or functional assay. The source holds these as a separate data set.
Assay [5] has the same target. As to the kind of experiment: cell-based or functional assay. This is another data set of the same source.
Assay [6] has the same target. Kind of assay: cell-based or functional assay. This is another data set of the same source.
Assay [7] addresses T2, Human C-type lectin domain family 5 member A (CLEC5A), endogenous on human monocytes and M0 macrophages (human, UniProt Q9NY25 1-188).
T2 construct: Endogenous CLEC5A on primary human monocytes and monocyte-derived M0 macrophages; also called MDL-1; M0 macrophages (CLEC5A+) cells
T2 sequence: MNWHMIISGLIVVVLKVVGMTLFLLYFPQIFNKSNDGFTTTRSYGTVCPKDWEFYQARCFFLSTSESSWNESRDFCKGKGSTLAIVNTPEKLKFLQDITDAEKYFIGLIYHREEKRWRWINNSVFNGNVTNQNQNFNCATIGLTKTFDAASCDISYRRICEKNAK
As to the kind of experiment: flow cytometry on human M0 macrophages, anti-human IgG PE.
Description: About 50,000 M0 macrophages were incubated with serially diluted antibodies in FACS buffer (PBS+0.5% BSA) for 30 minutes on ice. […] For analysis, the mean fluorescence intensity (MFI of PE) of each antibody was determined and plotted using GraphPad Prism software (Version 9.4.1; GraphPad Software Inc.).

In assay [8] the target is T3, Human CLEC5A His Tag protein (ACROBiosystems, Cat #: CLA-H5243) (human, UniProt Q9NY25 28-188, limits assumed).
T3 construct: Bought protein with a His tag; also called recombinant human CLEC5A protein
T3 sequence: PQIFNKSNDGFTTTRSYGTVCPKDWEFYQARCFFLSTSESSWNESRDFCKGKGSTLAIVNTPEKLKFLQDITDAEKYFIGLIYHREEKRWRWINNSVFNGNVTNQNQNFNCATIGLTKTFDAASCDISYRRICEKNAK
Kind of assay: ELISA, plate coated with human CLEC5A.

B1: CD79b/5C7 (1+1 B) Fc-optimized (bispecific antibody, human IgG1, kappa)
heavy 1: EQQLVETGGGLIQPGGSLRLSCAASGFTINIDYWISWVRQAPGKGLEWIGIIDPGDGTTYFAIWVSGRFTISFDNSKNTVYLQMNSLRAEDTAVYFCVREFSASAYQYDLWGPGTLVTVSSASTKGPSVFPLAPSSKSTSGGTAALGCLVKDYFPEPVTVSWNSGALTSGVHTFPAVLQSSGLYSLSSVVTVPSSSLGTQTYICNVNHKPSNTKVDKKVEPKSCDKTHTCPPCPAPELLAGPSVFLFPPKPKDTLMISRTPEVTCVVVDVSHEDPEVKFNWYVDGVEVHNAKTKPREEQYNSTYRVVSVLTVLHQDWLNGKEYKCKVSNKALPLPEEKTISKAKGQPREPQVYTLPPSRDELTKNQVSLSCAVKGFYPSDIAVEWESNGQPENNYKTTPPVLDSDGSFFLVSKLTVDKSRWQQGNVFSCSVMHEALHNHYTQKSLSLSPGK
heavy 2: DIQMTQSPSSLSASVGDRVTITCQASESVDRNNRLAWFQQKPGKPPKLLIYTTSTLASGVPSRFSGSGSGTDFTLTISSLQPEDVATYYCAGYRGAHTDGDAFGGGTKVEIKGGGGSGGGGSGGGGSGGGGSEQQLVESGGGLVKPGGSLRLSCAASGFSFSRSSYMCWVRQAPGKGLEWIGCLSVGDGHTYYASWAKGRFTISKDSAKNSVYLQMNSLRAEDTAVYFCARAPSYSGDGGHGYDLWGPGTLVTVSSDKTHTCPPCPAPELLAGPSVFLFPPKPKDTLMISRTPEVTCVVVDVSHEDPEVKFNWYVDGVEVHNAKTKPREEQYNSTYRVVSVLTVLHQDWLNGKEYKCKVSNKALPLPEEKTISKAKGQPREPQVYTLPPSRDELTKNQVSLWCLVKGFYPSDIAVEWESNGQPENNYKTTPPVLDSDGSFFLYSKLTVDKSRWQQGNVFSCSVMHEALHNHYTQKSLSLSPGK
light: ELVMTQSPATLSVSPGERATLSCRASEDIENYLAWYQQKPGQPPRLLIYRASTLSSGVPARFSGSGSGTEFTLTISSLQSEDFAVYYCQQGYRNSNVDNPFGGGTKVEIKRTVAAPSVFIFPPSDEQLKSGTASVVCLLNNFYPREAKVQWKVDNALQSGNSQESVTEQDSKDSTYSLSSTLTLSKADYEKHKVYACEVTHQGLSSPVTKSFNRGEC
In the case of B1, the “IC50 (nM), Ramos cell killing by PBMCs (test 2), Donor 431” value in assay [1] turned out to be 0.0253 nM. Also, in assay [2], the “IC50 (nM), Ramos cell killing by PBMCs (test 3), Donor 281” value stood at 0.0123 nM and the “IC50 (nM), Ramos cell killing by PBMCs (test 3), Donor 367” value turned out to be 0.841 nM. Besides, in assay [3], the “IC50 (nM), killing of endogenous B cells by PBMCs, Donor 367” value came to 0.0253 nM and the “IC50 (nM), killing of endogenous B cells by PBMCs, Donor 431” value was 0.0253 nM. For the same molecule, the “IC50 (nM), Ramos cell killing by M0 macrophages, Donor 431” value in assay [4] was 0.003 nM. Besides, the “IC50 (nM), Ramos cell killing by M1 macrophages, Donor 431” value in assay [5] came out at 0.006 nM. Also, the “IC50 (nM), Ramos cell killing by M2 macrophages, Donor 431” value in assay [6] was determined as 0.001 nM.

B2: CD79b/5C7 (2+2 B) Fc-silenced (bispecific antibody, human IgG1, kappa, L234A L235A)
heavy: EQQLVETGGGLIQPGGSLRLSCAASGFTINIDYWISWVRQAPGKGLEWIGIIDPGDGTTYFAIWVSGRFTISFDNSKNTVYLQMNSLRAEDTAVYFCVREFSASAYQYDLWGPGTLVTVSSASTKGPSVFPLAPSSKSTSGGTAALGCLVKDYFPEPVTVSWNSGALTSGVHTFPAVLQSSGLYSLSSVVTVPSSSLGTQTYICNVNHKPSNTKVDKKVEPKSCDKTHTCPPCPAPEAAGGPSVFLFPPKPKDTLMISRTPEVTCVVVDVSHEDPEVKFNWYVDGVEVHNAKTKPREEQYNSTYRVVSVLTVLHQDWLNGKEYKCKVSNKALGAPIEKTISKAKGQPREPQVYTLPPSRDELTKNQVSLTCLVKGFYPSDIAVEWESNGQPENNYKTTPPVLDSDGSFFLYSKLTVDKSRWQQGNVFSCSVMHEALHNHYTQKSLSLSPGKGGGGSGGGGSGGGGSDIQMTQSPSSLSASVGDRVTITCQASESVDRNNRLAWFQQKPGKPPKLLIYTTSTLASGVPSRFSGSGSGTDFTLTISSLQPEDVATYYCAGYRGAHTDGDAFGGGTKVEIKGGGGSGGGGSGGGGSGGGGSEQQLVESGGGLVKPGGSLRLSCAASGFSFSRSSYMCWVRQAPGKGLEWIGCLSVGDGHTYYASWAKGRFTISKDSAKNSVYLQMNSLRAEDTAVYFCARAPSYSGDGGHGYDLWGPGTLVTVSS
light: ELVMTQSPATLSVSPGERATLSCRASEDIENYLAWYQQKPGQPPRLLIYRASTLSSGVPARFSGSGSGTEFTLTISSLQSEDFAVYYCQQGYRNSNVDNPFGGGTKVEIKRTVAAPSVFIFPPSDEQLKSGTASVVCLLNNFYPREAKVQWKVDNALQSGNSQESVTEQDSKDSTYSLSSTLTLSKADYEKHKVYACEVTHQGLSSPVTKSFNRGEC
For B2, in assay [1], the “IC50 (nM), Ramos cell killing by PBMCs (test 2), Donor 431” value is 0.0062 nM. In assay [2], the “IC50 (nM), Ramos cell killing by PBMCs (test 3), Donor 022” value was 0.131 nM; the “IC50 (nM), Ramos cell killing by PBMCs (test 3), Donor 281” value was 0.043 nM; the “IC50 (nM), Ramos cell killing by PBMCs (test 3), Donor 367” value came to 0.0643 nM. Further, in assay [3], the “IC50 (nM), killing of endogenous B cells by PBMCs, Donor 023” value worked out at 0.0231 nM; the “IC50 (nM), killing of endogenous B cells by PBMCs, Donor 367” value was found to be 0.00617 nM; the “IC50 (nM), killing of endogenous B cells by PBMCs, Donor 431” value was 0.00617 nM. Further, in assay [4], the “IC50 (nM), Ramos cell killing by M0 macrophages, Donor 022” value turned out to be 0.002 nM; the “IC50 (nM), Ramos cell killing by M0 macrophages, Donor 100” value stood at 0.0008 nM; the “IC50 (nM), Ramos cell killing by M0 macrophages, Donor 159” value was determined as 0.001 nM; the “IC50 (nM), Ramos cell killing by M0 macrophages, Donor 161” value worked out at 0.0008 nM. In assay [4], the “IC50 (nM), Ramos cell killing by M0 macrophages, Donor 233” value came out at 0.002 nM. Also, in assay [5], the “IC50 (nM), Ramos cell killing by M1 macrophages, Donor 100” value worked out at 0.0007 nM and the “IC50 (nM), Ramos cell killing by M1 macrophages, Donor 431” value stood at 0.0014 nM. Also, in assay [6], the “IC50 (nM), Ramos cell killing by M2 macrophages, Donor 022” value worked out at 0.001 nM; the “IC50 (nM), Ramos cell killing by M2 macrophages, Donor 100” value came out at 0.0004 nM; the “IC50 (nM), Ramos cell killing by M2 macrophages, Donor 233” value stood at 0.002 nM; the “IC50 (nM), Ramos cell killing by M2 macrophages, Donor 431” value amounted to 0.0009 nM.

B3: 6G9, chimeric rabbit/human IgG1 anti-CLEC5A antibody (Fc-silenced) (antibody, V domains shown)
VH: QSLEESGGDLVKPGASLTLTCTASGFSFTSNKYMCWVRQAPGKGPEWIACIYVGDGNTYYASWAKGRFTISKTSSTTVTLQMTSLTVADTATYFCARGGDYSIGGGGFASNLWGPGTLVTVSS
VL: AFELTQTPSSVEAAVGGTVTINCQASESISNFLAWYRQKPGQPPKLLIYRASTLASGVSSRFKGSGSGTEFTLTISDLEPADGASYYCQSYYGTSSTGHNVFGGGTEVVVK
notes: also called ch6G9
B3 came in with an EC50 in assay [7] of 6840 pM. That is a single-digit nanomolar value.

B4: 7G10, chimeric rabbit/human IgG1 anti-CLEC5A antibody (Fc-silenced) (antibody, V domains shown)
VH: QQQLEESGGGLVKPGGTLTLTCKASGFSFSSGYDMCWVRQAPGKGLEWIACIYGGRSDNVYYARWAKGRFTISKTSSTTVTLQMTSLTAADTATYFCARDYLYRGYIGGGYGRSNLWGPGTLVTVSS
VL: DVVMTQTPASVSAAVGGTVTINCRASEDIENCLAWYQQKPGQPPKLLIYQASKLPSGVPSRFSGSGSGTEYTLTISDLEPDDGATYYCQNPDYMRNTDNLFGGGTEVVVK
notes: also called ch7G10
In the case of B4, the EC50 stood at 160 pM in assay [8] and 2060 pM in assay [7].

B5: 9E11, chimeric rabbit/human IgG1 anti-CLEC5A antibody (Fc-silenced) (antibody, V domains shown)
VH: QSLEESGGGLVQPEGSLTLTCTASGFDLNNYYYMCWVRQAPGKGLEWIACTHAGSSSSSYYARWAKGRFTISKTSSTTVTLQMTSLTAADTATYFCARHDRDYDDMDLWGPGTLVTVSS
VL: NIVMTQTTSPVSAVVGGTITINCQASQSIEYGYLSWYQQKPGQPPKLLIFYASKLASGVPSRFSGSGSGTQFTLTISGVQPDDAATYFCLYGYFDDYSGAAFGGGTEVVVK
notes: also called ch9E11
B5 gave a concentration giving a half-maximal response (EC50) in assay [7] of 1590 pM.

B6: 13E6, chimeric rabbit/human IgG1 anti-CLEC5A antibody (Fc-silenced) (antibody, V domains shown)
VH: QSLEESGGDLVKPGGTLTLTCTASGFSFSSSYWLCWVRQAPGKGLEWIACIYGGSSRGTYYASWAKGRFTISKTSSTTVTLQMTSLTAADTATYFCASHTYTYPRFSPYFNLWGPGTLVSVSS
VL: AFEMTQTPASVSPAVGGTVSINCQASEDIESSLAWYQQKPGQPPKLLIYDASDLESGVPSRFKGSGSGTEYTLTISGVQPADAATYFCQSAYYTGSADNTFGGGTEVVVK
notes: also called ch13E6
As for B6, the results for the concentration giving a half-maximal response (EC50) in assay [8] and in assay [7] were 610 pM and 2570 pM, respectively.

B7: DX244, reference anti-CLEC5A antibody (antibody, human IgG1, V domains shown)
VH: QIQLVQSGPELKKPGETVKISCKASGYTFTIYAMNWVKQAPGKGLEWMGWINTDTGEPTYADDFKGRFAFSLETSASTAYLQINNLKNEDMATYFCARSSEVFYDYRFDYWGQGTALTVSS
VL: DIQMTQSPSSLSASLGERVSLTCRASQDIGSSLNWLQQEPDGTIKRLIYATSNLDSGVPKRFSGSRSGSDYSLTISSLESEDFVHYYCLQYASSPFTFGSGTKLEIKR
notes: also called benchmark DX244
In the case of B7, it took 2800 pM to reach a half-maximal effect in assay [7] (EC50).

These data come from patent US20260201033A1 (LTZ THERAPEUTICS, published 2026).
